Patent US20100181197A1, “ISOELECTRIC POINT MARKERS” (GE HEALTHCARE BIO-SCIENCES AB, priority 2007, published 2010)
Ends that are not written are not given here.

Assay: Experimentally determined pI-values of tryptic peptides focused in IPG strips
Assay type: physicochemical
Settings: tryptic yeast peptides focused in IPG strips 3.7-4.05
Excerpt: Both methods are based on the equilibria of amino acid residues participating in reactions with water and can be described with one pK-value for each type of residue, which is independent of the nature of neighbouring amino acids. The consequence of this assumption is that for large groups of tryptic peptides, the same pI-value will be predicted. […] The approaches described above will result in the same pI-value for all these peptides. The value predicted at the Expasy server is 4.53, which can be compared with the value resulting from the experimental distribution, i.e. 4.49±0.075.
It would be expected that the presence of two negatively charged amino acid residues at limited distances from each other along the amino acid chain should result in an increase of the pK-values involved and a concomitant increase of the pI-value, while two positively charged residues at limited distances from each other along the peptide chain could be expected to give reversed effect, i.e. a decrease in pK-values and a concomitant decrease of the pI-value. In reality, no such effects can be detected. […] In the peptides, C-terminal amino acids are either lysine or arginine. […] This is explained by the presence of two oppositely charged amino acid residues in the chain, thereby favouring configurations with a short distance between the two residues. As a consequence, pK-values are affected also when these residues are separated by up to 5 amino acid residues. On the other hand, the presence of two equally charged residues favours configurations with the longest possible distance between the charged groups and for neighbouring charged residues, the average distance becomes too long to generate a detectable effect on pK and pI values.
The C-terminal, which in tryptic digests is either lysine or arginine contains both a positively charged group and a negatively charged group, gives notable effects on resulting pI-values only when the neighbouring group is charged. At larger distances, for peptides having two internal glutamic acid residues (no glutamic acid in position 1-6), the C-terminal amino acid being either lysine or arginine, the effect on pI is negligible (Table 2).
3.1 Yeast proteins (Saccharomyces cerevisiae, type II (1 gram) were dissolved in a 10 ml solution containing 50 mM Tris-HCl pH 8.0, 6 M urea and 10 mM DDT. The solution was allowed to stand for 1 hour at 37° C. and then allowed to react with iodoacetamide (addition of 250 μl 0.8 M iodoacetamide solution) for 30 minutes at room temperature to […] the cysteine groups. The sample was then sonicated 5 times for 30 seconds followed by dilution of the sample in 50 mM Tris-HCl, 1 mM CaCl2 (1 ml sample to 9 ml Tris-Cl buffer solution). 2.5 ml of diluted sample was added to a container with 250 μg trypsin (4 containers for 10 ml diluted sample) and digestion was allowed to proceed for 2 hours at 37° C. The sample was then concentrated by evaporation to 2 ml. 1 ml of digested concentrated sample was then added to a NAP-10 column pre-equilibrated with 15 ml 8 M urea solution and the sample was eluted with 1.5 ml urea. After a protein determination the sample was aliquoted and frozen until used.
A total of 6612 tryptic yeast peptides have been identified after focusing in IPG strips 3.7-4.05. Sixteen of these peptides have a structure (Table 5) which should give them a pI in close agreement with the pI of the marker. The average value found for these peptides 3.80±0.03 is in reasonable agreement with the value found for the pI marker.

Row | Substance | pI-value
1 | DADLLNSVVVQR [tryptic yeast peptide identified after focusing in IPG strips 3.7-4.05] | 3.775
2 | DCDSLSSLVTR [tryptic yeast peptide identified after focusing in IPG strips 3.7-4.05] | 3.765
3 | DGDQVVFMVSQK [tryptic yeast peptide identified after focusing in IPG strips 3.7-4.05] | 3.760
4 | DGDYNLVGSK [tryptic yeast peptide identified after focusing in IPG strips 3.7-4.05] | 3.746
5 | DIDILVNNAGK [tryptic yeast peptide identified after focusing in IPG strips 3.7-4.05] | 3.828
6 | DIDNGYTLSLMYK [tryptic yeast peptide identified after focusing in IPG strips 3.7-4.05] | 3.800
7 | DLDAAQGTLK [tryptic yeast peptide identified after focusing in IPG strips 3.7-4.05] | 3.815
8 | DLDAVNGSNGSK [tryptic yeast peptide identified after focusing in IPG strips 3.7-4.05] | 3.790
9 | DLDLPTQQILVAR [tryptic yeast peptide identified after focusing in IPG strips 3.7-4.05] | 3.830
10 | DNDVQLAATK [tryptic yeast peptide identified after focusing in IPG strips 3.7-4.05] | 3.800
11 | DQDSAVVSSNIK [tryptic yeast peptide identified after focusing in IPG strips 3.7-4.05] | 3.823
12 | DSDVTWLYGPIVR [tryptic yeast peptide identified after focusing in IPG strips 3.7-4.05] | 3.800
13 | DSDYIPVVVVGNK [tryptic yeast peptide identified after focusing in IPG strips 3.7-4.05] | 3.825
14 | DTDMVLIPAGVPR [tryptic yeast peptide identified after focusing in IPG strips 3.7-4.05] | 3.808
15 | DTDYVPIVVVGNK [tryptic yeast peptide identified after focusing in IPG strips 3.7-4.05] | 3.840
16 | DVDLVNAAR [tryptic yeast peptide identified after focusing in IPG strips 3.7-4.05] | 3.800

Assay: Isoelectric focusing of CY5-labelled pI markers in IPG strips, fluorescence scan
Assay type: physicochemical
Settings: linear IPG pH 3.70-4.05, 22 cm strip, 8 M urea, 20° C., 129 kVh, 0.3 μg/strip
Experimental: The amino acid sequences of the isoelectric point markers were selected essentially as described in Shimura, K. et al, Electrophoresis, (2000), 21, 603-610. The markers contain a minimum of two […] groups with pK values in the vicinity of the pI value of the corresponding marker. The pH scale is a pH scale defined for isoelectric focussing in 8M urea and 20° C. as described in Bjellqvist, B. et al, Electrophoresis, (1993), 14, 1357-1365, Bjellqvist, B. et al, Electrophoresis, (1994), 15, 529-539.
3.2 Sample application was performed with polyacrylamide gel pieces, cast as 1 mm thick gel of the size 260×110 mm on a GelBond PAGE film. In addition to acrylamide (38.8 gram/litre) and bisacrylamide (1.2 gram/litre) the gel polymerising solution contained 15.0 mM Immobiline pK 3.6 and 5.9 mM Immobiline pK 9.3. The polymerisation initiators used were ammonium persulfate and tetramethyl ethylenediamine. The gel was extensively washed in water (10 wash cycles of 20 minutes using 200 ml water/wash). To the last wash was added 2% glycerol. The gel was then dried and cut to generate a number sample application gel pieces of the size 43×7 mm.
Four, 22 cm long IPG strips were re-swollen overnight in 250 μl 8 M urea solution containing 1% Pharmalyte pH 2.5-5 and a trace of bromophenol blue. In parallel, four sample application gel pieces were re-swollen in 315 μl sample solution containing 300 μg yeast protein in 8 M urea to which 0.3 μg of the pI marker had been added.
The four re-swollen IPG strips were positioned in a ceramic manifold in the IPGPHOR™ 3 with the GelBond film downwards. At the basic/cathodic ends of the IPG strips, paper electrode wicks (10×7×1 mm) to which 150 ul water had been added, were positioned on top of the IPG strips with an overlap of 2 mm to establish electric contact. At the anodic end, the wetted electrode wick was positioned 39 mm away from the acidic end of the IPG strip. The re-swollen acidic sample application gel was positioned with the gel side down as a bridge between the paper electrode wick and the IPG strip to give contact both with the paper wick and with the IPG strip through a 2 mm overlap region. The anodic and cathodic electrodes were finally positioned on the anodic and cathodic paper electrode wicks respectively and a light pressure was applied on the back of the sample application gels at the over lap regions with the paper electrode wicks and the IPG strips respectively.
3.3 Focusing was then performed at 20° C. with maximum current set to 50 uA/strip with the following voltage settings:
The focusing experiment was performed with current limitations from 1000V onwards; 2500 V was reached after 5 hours and the voltage only changed slowly to reach a final voltage of 2715 V after 52 hours 23 minutes and a total volthourproduct of 129 kilovolthours.
Upon completion, the gel strips were transferred to a TYPHOON™ 9400 imager and scanned in the fluorescence mode at 633 nm (FIG. 3). From the focusing positions the pI-value for the marker was determined to be 3.86.
Focusing was performed in IPG strips pH 3.4-4.9 containing a non-linear pH-gradient adjusted to give an even distribution of peptides in the focused strip. The experiment was run essentially as described in Example 3. For sample application, the same type of polyacrylamide gel applicator was used, this time re-swollen in an 8M urea solution containing 30 μg of the digested yeast proteins and 0.3 μg of each of the four pI-markers. Focusing was continued for 47 hours 45 minutes and the total volthourproduct was 207 kVh.

Row | Substance | pI-value for the marker from focusing positions
17 | H2N-Asp-Gly-Asp-Gly-Lys(CY™5)-COOH (H-DGDGK(Cy5)-OH) [Compound xvii] | 3.86

Same assay, conditions: marker reacted at C-terminal lysine with CY5; experimental pI

Row | Substance | pI (exp) pI/marker
18 | H2N-Asp-Gly-Asp-Gly-Lys(CY™5)-COOH (H-DGDGK(Cy5)-OH) [Compound xvii] | 3.86
19 | H2N-Glu-Gly-Asp-Gly-Lys(CY™5)-COOH (H-EGDGK(Cy5)-OH) [Compound xxii] | 4.18
20 | H2N-Glu-Gly-Glu-Gly-Lys(CY™5)-COOH (H-EGEGK(Cy5)-OH) [xxiii] | 4.28
21 | H2N-Gly-Asp-Gly-Gly-Asp-Gly-Gly-Lys(CY™5)-COOH [xviii] | 4.02
22 | H2N-Gly-Glu-Glu-Gly-Gly-Lys(CY™5)-COOH [Compound xx] | 4.44
23 | H2N-Gly-Glu-Gly-Gly-Glu-Gly-Glu-Lys(CY™5)-COOH (H-GEGGEGEK(Cy5)-OH) [xix] | 4.22
24 | H2N-Gly-Gly-Glu-Gly-Gly-Glu-Gly-Lys(CY™5)-COOH (H-GGEGGEGK(Cy5)-OH) [xxiv] | 4.42
25 | H2N-Gly-Gly-Gly-Gly-Glu-Glu-Lys(CY™5)-COOH (H-GGGGEEK(Cy5)-OH) [Compound xxi] | 4.56
